Source: US20040175824A1
Several values for one entry are separate records, joined by “and”; a condition that tells them apart may be missing. Equal entries are not always repeated.

Molecular target: human EPO receptor (EPO-Rc) (human) (UniProt P19235)
Test: cell-based or functional assay

Sequence of UniProt P19235 (P19235 25-508): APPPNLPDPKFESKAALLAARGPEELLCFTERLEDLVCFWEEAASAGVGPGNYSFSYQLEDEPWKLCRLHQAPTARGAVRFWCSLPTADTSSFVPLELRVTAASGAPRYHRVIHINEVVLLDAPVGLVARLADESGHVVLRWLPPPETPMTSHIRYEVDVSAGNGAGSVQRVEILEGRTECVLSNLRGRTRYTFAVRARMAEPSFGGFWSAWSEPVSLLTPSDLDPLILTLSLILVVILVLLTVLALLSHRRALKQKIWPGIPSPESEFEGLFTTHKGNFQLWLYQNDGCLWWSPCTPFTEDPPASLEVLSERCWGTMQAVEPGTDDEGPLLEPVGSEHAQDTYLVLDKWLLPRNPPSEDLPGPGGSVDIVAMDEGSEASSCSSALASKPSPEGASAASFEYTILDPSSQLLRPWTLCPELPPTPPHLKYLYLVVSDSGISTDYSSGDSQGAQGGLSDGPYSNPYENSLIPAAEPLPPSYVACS

proliferation of the 32D1.9 cells (MTT, OD 550 nm); in vitro biological activity on a molar basis: 3e+06 units/µmole and 4e+06 units/µmole
Substance: Recombinant human EPO (rHuEPO) (from UniProt P01588 28-192) (ligand)
